Data on 1 molecule can be found in patent US20110077250, “COMPOUNDS FOR MODULATING RNA BINDING PROTEINS AND USES THEREFOR” (published 2011).

This series deals with T1, MEX-5 (UniProt Q9XUB2 Q9XUB2:236-350).
T1 sequence: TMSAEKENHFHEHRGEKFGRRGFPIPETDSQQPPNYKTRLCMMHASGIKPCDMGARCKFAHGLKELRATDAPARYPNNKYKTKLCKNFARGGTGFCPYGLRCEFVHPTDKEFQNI
Description: FP; 120 nM protein, 2 nM RNA, 100 uM zinc acetate, 20-50 mM Tris pH 8.0, 40-100 mM NaCl, tRNA; Z-value 0.8-0.9; also by gel shift; small-molecule inhibition of complex measured. The conditions noted are these: tags: N-terminal MBP fusion (pMal-c, NEB); HTS paragraph says C-terminal fusion to MBP; from Open Biosystems ORFeome clone; label: 3'-fluorescein (FITC).

B1: TCR2 RNA (ssRNA)
RNA: UUUCUUUAUAACUUGUUACAAUUUUUGAAA
B1: the binding result is “binds”.
